# Experimental data from patent US20240132578A1.
# Tests used:
# Assay in all cases: cell-based or functional assay
# [1] = target: HIV-1 Env of isolate MGRM-C-001 (subtype C) (HIV-1)
# [2] = target: HIV-1 Env of isolate MGRM-G-001 (subtype G), on pseudovirus (HIV-1)
# [3] = target: HIV-1 Env of isolate MGRM-C-027 (subtype C) (HIV-1)
# [4] = target: HIV-1 Env of isolate MGRM-G-027 (subtype G), on pseudovirus (HIV-1)
# [5] = target: HIV-1 Env of isolate MGRM-G-006 (subtype G), on pseudovirus (HIV-1)
# [6] = target: HIV-1 Env of isolate MGRM-C-019 (subtype C) (HIV-1)
# [7] = target: HIV-1 Env of isolate MGRM-C-008 (subtype C) (HIV-1)
# [8] = target: HIV-1 Env of isolate MGRM-C-002 (subtype C) (HIV-1)
# [9] = target: HIV-1 Env of isolate MGRM-C-004 (subtype C) (HIV-1)
# [10] = target: HIV-1 Env of isolate MGRM-C-015 (subtype C) (HIV-1)
# [11] = target: HIV-1 Env of isolate 93MW959 (subtype C) (HIV-1)
# [12] = target: HIV-1 Env of isolate MGRM-G-004 (subtype G), on pseudovirus (HIV-1)
# [13] = target: aMLV envelope, on pseudovirus (negative control)
# [14] = target: HIV-1 Env of isolate MGRM-C-023 (subtype C) (HIV-1)
# [15] = target: HIV-1 Env of isolate MGRM-C-007 (subtype C) (HIV-1)
# [16] = target: HIV-1 Env of isolate MGRM-C-025 (subtype C) (HIV-1)
# [17] = target: HIV-1 Env of isolate 98IN022 (subtype C) (HIV-1)
# [18] = target: HIV-1 Env of isolate MGRM-G-025 (subtype G), on pseudovirus (HIV-1)
# [19] = target: HIV-1 Env of isolate MGRM-C-006 (subtype C) (HIV-1)
# [20] = target: HIV-1 Env of isolate 97ZA012 (subtype C) (HIV-1)
# [21] = target: HIV-1 Env of isolate MGRM-C-020 (subtype C) (HIV-1)
# [22] = target: HIV-1 JR-CSF Env D474A (HIV-1 JR-CSF) (UniProt P20871)
# [23] = target: HIV-1 Env of isolate MGRM-C-014 (subtype C) (HIV-1)
# [24] = target: HIV-1 JR-CSF Env G471A (HIV-1 JR-CSF) (UniProt P20871)
# [25] = target: HIV-1 Env of isolate MGRM-G-028 (subtype G), on pseudovirus (HIV-1)
# [26] = target: HIV-1 Env of isolate MGRM-G-014 (subtype G), on pseudovirus (HIV-1)
# [27] = target: HIV-1 Env of isolate MGRM-G-009 (subtype G), on pseudovirus (HIV-1)
# [28] = target: HIV-1 Env of isolate MGRM-C-012 (subtype C) (HIV-1)
# [29] = target: HIV-1 Env of isolate MGRM-G-017 (subtype G), on pseudovirus (HIV-1)
# [30] = target: HIV-1 Env of isolate MGRM-C-005 (subtype C) (HIV-1)
# [31] = target: HIV-1 Env of isolate MGRM-C-024 (subtype C) (HIV-1)
# [32] = target: HIV-1 Env of isolate MGRM-G-016 (subtype G), on pseudovirus (HIV-1)
# [33] = target: HIV-1 Env of isolate MGRM-G-013 (subtype G), on pseudovirus (HIV-1)
# [34] = target: HIV-1 Env of isolate MGRM-G-011 (subtype G), on pseudovirus (HIV-1)
# [35] = target: HIV-1 Env of isolate MGRM-C-010 (subtype C) (HIV-1)
# [36] = target: HIV-1 Env of isolate MGRM-C-022 (subtype C) (HIV-1)
# [37] = target: HIV-1 Env of isolate MGRM-C-013 (subtype C) (HIV-1)
# [38] = target: HIV-1 Env of isolate MGRM-G-024 (subtype G), on pseudovirus (HIV-1)
# [39] = target: HIV-1 Env of isolate MGRM-G-019 (subtype G), on pseudovirus (HIV-1)
# [40] = target: HIV-1 Env of isolate MGRM-C-009 (subtype C) (HIV-1)
# [41] = target: HIV-1 Env of isolate MGRM-C-017 (subtype C) (HIV-1)
# [42] = target: HIV-1 Env of isolate MGRM-C-028 (subtype C) (HIV-1)
# [43] = target: HIV-1 Env of isolate MGRM-C-026 (subtype C) (HIV-1)
# [44] = target: HIV-1 Env of isolate MGRM-G-015 (subtype G), on pseudovirus (HIV-1)
substance,measurement,setting,value
PGT-122 (antibody),"IC50 (µg/mL), pseudovirus neutralization",[1],19.1 µg/mL
same,"IC50 (µg/mL), neutralization of pseudovirus",[2],0.005 µg/mL
same,"IC50 (µg/mL), pseudovirus neutralization",[3],0.039 µg/mL
same,"IC50 (µg/mL), neutralization of pseudovirus",[4],0.606 µg/mL
same,"IC50 (µg/mL), neutralization of pseudovirus",[5],> 50 µg/mL
same,"IC50 (µg/mL), pseudovirus neutralization",[6],> 50 µg/mL
same,"IC50 (µg/mL), pseudovirus neutralization",[7],0.028 µg/mL
same,"IC50 (µg/mL), pseudovirus neutralization",[8],0.022 µg/mL
same,"IC50 (µg/mL), pseudovirus neutralization",[9],0.02 µg/mL
same,"IC50 (µg/mL), pseudovirus neutralization",[10],> 50 µg/mL
same,"IC50 (µg/mL), pseudovirus neutralization",[11],0.016 µg/mL
same,"IC50 (µg/mL), neutralization of pseudovirus",[12],2.15 µg/mL
same,"IC50 (µg/mL), neutralization of pseudovirus",[13],> 50 µg/mL
same,"IC50 (µg/mL), pseudovirus neutralization",[14],0.027 µg/mL
same,"IC50 (µg/mL), pseudovirus neutralization",[15],3.35 µg/mL
same,"IC50 (µg/mL), pseudovirus neutralization",[16],8.69 µg/mL
same,"IC50 (µg/mL), pseudovirus neutralization",[17],0.032 µg/mL
same,"IC50 (µg/mL), neutralization of pseudovirus",[18],0.079 µg/mL
same,"IC50 (µg/mL), pseudovirus neutralization",[19],0.018 µg/mL
same,"IC50 (µg/mL), pseudovirus neutralization",[20],0.004 µg/mL
same,"IC50 (µg/mL), pseudovirus neutralization",[21],14 µg/mL
same,Fold IC50 increase relative to wild-type,[22],1.8 fold
same,"IC50 (µg/mL), pseudovirus neutralization",[23],> 50 µg/mL
same,Fold IC50 increase relative to wild-type,[24],1.8 fold
same,"IC50 (µg/mL), neutralization of pseudovirus",[25],0.01 µg/mL
same,"IC50 (µg/mL), neutralization of pseudovirus",[26],0.008 µg/mL
same,"IC50 (µg/mL), neutralization of pseudovirus",[27],0.514 µg/mL
same,"IC50 (µg/mL), pseudovirus neutralization",[28],2 µg/mL
same,"IC50 (µg/mL), neutralization of pseudovirus",[29],0.032 µg/mL
same,"IC50 (µg/mL), pseudovirus neutralization",[30],0.027 µg/mL
same,"IC50 (µg/mL), pseudovirus neutralization",[31],0.102 µg/mL
same,"IC50 (µg/mL), neutralization of pseudovirus",[32],> 50 µg/mL
same,"IC50 (µg/mL), neutralization of pseudovirus",[33],3.45 µg/mL
same,"IC50 (µg/mL), neutralization of pseudovirus",[34],31.3 µg/mL
same,"IC50 (µg/mL), pseudovirus neutralization",[35],> 50 µg/mL
same,"IC50 (µg/mL), pseudovirus neutralization",[36],0.012 µg/mL
same,"IC50 (µg/mL), pseudovirus neutralization",[37],32.6 µg/mL
same,"IC50 (µg/mL), neutralization of pseudovirus",[38],0.033 µg/mL
same,"IC50 (µg/mL), neutralization of pseudovirus",[39],0.016 µg/mL
same,"IC50 (µg/mL), pseudovirus neutralization",[40],> 50 µg/mL
same,"IC50 (µg/mL), pseudovirus neutralization",[41],0.015 µg/mL
same,"IC50 (µg/mL), pseudovirus neutralization",[42],2.22 µg/mL
same,"IC50 (µg/mL), pseudovirus neutralization",[43],0.006 µg/mL
same,"IC50 (µg/mL), neutralization of pseudovirus",[44],> 50 µg/mL
PGT-121 (antibody),"IC50 (µg/mL), pseudovirus neutralization",[1],17.5 µg/mL
same,"IC50 (µg/mL), neutralization of pseudovirus",[2],0.004 µg/mL
same,"IC50 (µg/mL), pseudovirus neutralization",[3],0.011 µg/mL
same,"IC50 (µg/mL), neutralization of pseudovirus",[4],0.124 µg/mL
same,"IC50 (µg/mL), neutralization of pseudovirus",[5],> 50 µg/mL
same,"IC50 (µg/mL), pseudovirus neutralization",[6],> 50 µg/mL
same,"IC50 (µg/mL), pseudovirus neutralization",[7],0.012 µg/mL
same,"IC50 (µg/mL), pseudovirus neutralization",[8],0.019 µg/mL
same,"IC50 (µg/mL), pseudovirus neutralization",[9],0.011 µg/mL
same,"IC50 (µg/mL), pseudovirus neutralization",[10],25.1 µg/mL
same,"IC50 (µg/mL), pseudovirus neutralization",[11],0.013 µg/mL
same,"IC50 (µg/mL), neutralization of pseudovirus",[12],0.115 µg/mL
same,"IC50 (µg/mL), neutralization of pseudovirus",[13],> 50 µg/mL
same,"IC50 (µg/mL), pseudovirus neutralization",[14],0.017 µg/mL
same,"IC50 (µg/mL), pseudovirus neutralization",[15],0.196 µg/mL
same,"IC50 (µg/mL), pseudovirus neutralization",[16],46.8 µg/mL
same,"IC50 (µg/mL), pseudovirus neutralization",[17],0.007 µg/mL
same,"IC50 (µg/mL), neutralization of pseudovirus",[18],0.063 µg/mL
same,"IC50 (µg/mL), pseudovirus neutralization",[19],0.017 µg/mL
same,"IC50 (µg/mL), pseudovirus neutralization",[20],0.002 µg/mL
same,"IC50 (µg/mL), pseudovirus neutralization",[21],> 50 µg/mL
same,"IC50 (µg/mL), pseudovirus neutralization",[23],26.9 µg/mL
same,"IC50 (µg/mL), neutralization of pseudovirus",[25],0.014 µg/mL
same,"IC50 (µg/mL), neutralization of pseudovirus",[26],0.009 µg/mL
same,"IC50 (µg/mL), neutralization of pseudovirus",[27],0.02 µg/mL
same,"IC50 (µg/mL), pseudovirus neutralization",[28],0.123 µg/mL
same,"IC50 (µg/mL), neutralization of pseudovirus",[29],0.004 µg/mL
same,"IC50 (µg/mL), pseudovirus neutralization",[30],0.015 µg/mL
same,"IC50 (µg/mL), pseudovirus neutralization",[31],0.052 µg/mL
same,"IC50 (µg/mL), neutralization of pseudovirus",[32],> 50 µg/mL
same,"IC50 (µg/mL), neutralization of pseudovirus",[33],3.99 µg/mL
same,"IC50 (µg/mL), neutralization of pseudovirus",[34],3.17 µg/mL
same,"IC50 (µg/mL), pseudovirus neutralization",[35],> 50 µg/mL
same,"IC50 (µg/mL), pseudovirus neutralization",[36],0.015 µg/mL
same,"IC50 (µg/mL), pseudovirus neutralization",[37],7.23 µg/mL
same,"IC50 (µg/mL), neutralization of pseudovirus",[38],0.014 µg/mL
same,"IC50 (µg/mL), neutralization of pseudovirus",[39],0.011 µg/mL
same,"IC50 (µg/mL), pseudovirus neutralization",[40],> 50 µg/mL
same,"IC50 (µg/mL), pseudovirus neutralization",[41],0.009 µg/mL
same,"IC50 (µg/mL), pseudovirus neutralization",[42],0.472 µg/mL
same,"IC50 (µg/mL), pseudovirus neutralization",[43],0.002 µg/mL
same,"IC50 (µg/mL), neutralization of pseudovirus",[44],> 50 µg/mL
